B1: IKZF1 (parent)
chain: HIKLHSGEKPFKCHLCNYACRRRD

Variants of: B1
Assay: protein stability index of a GFP-peptide fusion (GPS, HEK-293T) (PSI 1-6); higher = more stable
Conditions: c terminus: a fixed tail appended
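Also: lentivirally expressed fusions sorted by FACS into six bins by GFP to DsRed ratio, PSI derived from sequencing read proportions per bin multiplied by bin number.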

Protein stability index of substitutions, site by site:
C13: W 2.73 | Y 1.77 | I 2.28 | Q 2.75 | D 3.34 | K 3 | H 2.79 | E 2.58 | A 2.28 | N 3.53 | V 2.21 | G 3.04 | L 1.85 | T 2.91 | P 2.97
G7: W 2 | N 1.18 | P 2.19 | R 2.08 | A 2.2 | D 2.25 | C 2.58 | L 1.73 | S 1.63 | V 3.09 | E 2.62 | H 1.97 | K 2.47 | M 1.78 | Q 2.16
K9: T 1.42 | C 2.79 | E 2.02 | H 3.3 | Q 1.88 | S 2.17 | D 2.8 | W 1.26 | I 2.23 | F 1.97 | N 1.79
E8: I 1.74 | N 1.25 | V 2.13 | G 2.85 | H 1.93 | F 1.72 | C 1.97 | Y 2.06 | R 1.33 | A 1.92 | W 2.28 | K 1.5 | T 1.59 | D 1.72 | P 2.17
K3: Y 1.69 | L 1.99 | F 2.38 | G 2.38 | M 1.51 | T 1.9 | H 2.44 | C 2.56 | V 1.83 | R 1.88 | D 1.95
P10: Q 1.43 | E 1.07 | A 1.55 | L 1.76 | H 1.67 | G 1.93 | I 2.19 | D 2.14 | V 2.26 | N 2.16 | K 2.73 | W 2.31 | Y 2.88 | R 1.74 | T 1.84 | S 1.75
H5: R 1.55 | D 2.12 | M 2.06 | Y 2.45 | F 1.97 | G 2.45 | A 3.14 | P 1.94 | W 1.8 | K 2.27 | I 2.57 | N 2.13 | T 1.48 | S 1.18 | V 1.78
R23: C 2.27 | I 2 | G 2.04 | N 1.63 | F 2.36 | P 2.02 | W 2.21 | L 1.44 | D 2.18 | Y 1.72 | H 2.12 | E 1.8 | Q 1.71
R21: W 1.49 | N 1.65 | D 1.29 | E 2.27 | Y 1.58 | P 2.39 | L 1.59 | G 2.41 | A 3.46 | H 2.27 | C 1.78 | V 1.3 | F 2.22 | T 2.38 | K 2.19
H14: L 1.88 | P 1.83 | T 2.42 | G 1.89 | C 3.78 | W 2.23 | Q 1.83 | Y 1.45 | M 1.54 | N 1.69 | S 2.09 | V 2.23 | E 1.66 | A 1.5 | F 2.32 | I 1.55 | K 2.39 | R 2.26
L15: I 2.44 | A 2.28 | P 2.64 | K 2.68 | D 1.74 | G 2.43 | W 2.44 | E 2.5 | M 1.36 | Q 2.47 | Y 1.63 | R 2.3 | F 1.89 | S 2.11 | T 2.92
L4: V 1.31 | R 2.48 | T 1.63 | I 1.72 | F 1.92 | Q 4.68 | P 2.19 | S 2.84 | G 2.21 | K 4.07 | E 3.72 | N 1.87 | H 4.08 | M 1.58 | D 2.4
C20: L 1.63 | Y 1.86 | D 1.59 | K 1.64 | H 1.94 | V 2.89 | F 2.25 | E 1.83 | T 2.08 | M 2.5 | S 1.69 | A 2.41 | N 2.35 | G 1.96
I2: D 2.5 | Q 2.32 | N 2.14 | F 2.27 | E 1.78 | R 1.96 | H 2.3 | G 2.29 | L 2 | C 2.44 | S 1.76 | Y 1.93 | V 1.47
Y18: Q 2.67 | E 2.02 | G 2.84 | N 1.88 | W 1.16 | L 2.23 | C 2.04 | R 2.15 | F 2.07 | T 1.54 | P 1.94 | H 1.82 | I 1.48 | K 1.99
N17: H 1.98 | R 1.53 | T 2.12 | F 2.79 | A 2.67 | M 1.86 | G 2.05 | V 2.39 | D 1.47 | I 2.86
H1: G 2 | R 2.13 | C 1.83 | P 2.3 | Q 1.26 | E 2.21 | M 1.81 | V 1.72 | L 2.04 | F 2.4 | W 1.93
D24: V 2.39 | L 2.01 | K 2.48 | I 2.89 | T 2.31 | Y 1.9 | E 1.99 | F 2.54 | G 2.04 | H 2.06 | N 1.76
C16: L 2.26 | I 2.35 | W 2.14 | E 3.02 | S 2.96 | T 2.8 | R 2.81 | H 2.29 | G 3.03 | K 2.91 | Y 1.88 | M 2.04 | N 2.8 | Q 2.12
K12: P 1.78 | Q 2.28 | R 2.23 | Y 2.13 | H 1.7 | D 1.68 | V 2.21 | S 1.95 | G 2.38 | I 1.78 | L 1.82 | A 1.77 | W 1.59 | E 2.29
R22: F 2.03 | T 2.5 | Y 2.05 | I 1.7 | K 1.95 | V 1.91 | L 1.72 | M 1.87 | Q 2.2 | N 1.2 | A 1.68 | H 2.71 | W 3.09 | E 1.95 | S 2.97 | C 1.87 | D 1.76
F11: T 1.85 | E 2.17 | A 2.75 | D 2.15 | K 2.6 | M 2.21 | V 1.46 | G 2.06 | C 1.83 | L 2.12 | I 1.46 | Q 2.41 | Y 1.52 | H 2.2 | R 1.74 | P 1.67
A19: G 1.49 | I 2.13 | M 1.88 | S 1.94 | H 1.85 | E 2.1 | F 2.07 | W 2.52 | T 1.81 | Y 1.32 | V 1.4 | K 3.11 | R 2.62 | D 1.58
S6: Q 1.88 | I 2.38 | A 1.65 | K 1.82 | W 2.93 | Y 1.79 | G 2.02 | E 3.3 | P 2.02 | H 1.96 | V 1.16 | L 1.93

Reference: the supplement of paper PMC10567573
